Source: the supplement of paper PMC7125110
± gives the standard error. For part of these data: Variants at the floor of the assay were thinned out.

B1: glmS ribozyme (parent)
chain: AUAAAAGCGCCAGAACUACAGAAAUGUAGUUGACGAGGAGGAGGUUUAUCGAAUUUUCGGCGGAUGCCUCCAAA

Tests used:
Details in all cases: with glucosamine-6-phosphate
glucosamine-6-phosphate [1] = variants of: B1; assay: kcat; higher = faster cleavage; RNA array
How it was run: (§1)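 Weighted Michaelis–Menten fits across concentrations supplied kcat and KM, based on kobs from one- or two-exponential decay fits to normalised per-tile medians. The data came from barcoded ribozyme variants transcribed in situ by E. coli RNA polymerase on sequenced MiSeq chips and tracked at 37 °C by a hybridised Cy3 probe. Glucosamine-6-phosphate (40 μM to 10 mM) in HEPES/KCl/Mg(OAc)2 buffer was flowed in.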

glucosamine-6-phosphate [2] = variants of: B1; assay: self-cleavage kobs at 2500 uM GlcN6P; higher = faster cleavage; RNA array
How it was run: as §1

glucosamine-6-phosphate [3] = variants of: B1; assay: self-cleavage kobs at 10000 uM GlcN6P; higher = faster cleavage; RNA array
How it was run: as §1

glucosamine-6-phosphate [4] = variants of: B1; assay: KM; higher = weaker cofactor use; RNA array
How it was run: as §1

glucosamine-6-phosphate [5] = variants of: B1; assay: self-cleavage kobs at 160 uM GlcN6P; higher = faster cleavage; RNA array
How it was run: as §1

glucosamine-6-phosphate [6] = variants of: B1; assay: self-cleavage kobs at 640 uM GlcN6P; higher = faster cleavage; RNA array
How it was run: as §1

glucosamine-6-phosphate [7] = variants of: B1; assay: self-cleavage kobs at 40 uM GlcN6P; higher = faster cleavage; RNA array
How it was run: as §1

Variant: G43A A53G
- kcat (glucosamine-6-phosphate [1]): 8.84e-05 ± 2.5e-05 s⁻¹
- self-cleavage kobs at 2500 uM GlcN6P (glucosamine-6-phosphate [2]): 0.000132 ± 2.8e-05 s⁻¹
- self-cleavage kobs at 10000 uM GlcN6P (glucosamine-6-phosphate [3]): 7.56e-05 ± 8.5e-06 s⁻¹

Variant: G13A U56G
- kcat (glucosamine-6-phosphate [1]): 0.000892 ± 0.0002 s⁻¹
- KM (glucosamine-6-phosphate [4]): 3800 ± 1300 µM
- self-cleavage kobs at 160 uM GlcN6P (glucosamine-6-phosphate [5]): 4.73e-05 ± 9.8e-06 s⁻¹
- self-cleavage kobs at 640 uM GlcN6P (glucosamine-6-phosphate [6]): 0.000128 ± 1.8e-05 s⁻¹
- self-cleavage kobs at 2500 uM GlcN6P (glucosamine-6-phosphate [2]): 0.000264 ± 5.9e-05 s⁻¹
- self-cleavage kobs at 10000 uM GlcN6P (glucosamine-6-phosphate [3]): 0.000696 ± 8.2e-05 s⁻¹

Variant: U30C A52G
- kcat (glucosamine-6-phosphate [1]): 1.33e-05 ± 2.9e-06 s⁻¹

Variant: A64G C70U
- kcat (glucosamine-6-phosphate [1]): 0.00369 ± 0.001 s⁻¹
- KM (glucosamine-6-phosphate [4]): 2630 ± 1000 µM
- self-cleavage kobs at 40 uM GlcN6P (glucosamine-6-phosphate [7]): 7.77e-05 ± 7.5e-06 s⁻¹
- self-cleavage kobs at 160 uM GlcN6P (glucosamine-6-phosphate [5]): 0.000149 ± 2.2e-05 s⁻¹
- self-cleavage kobs at 640 uM GlcN6P (glucosamine-6-phosphate [6]): 0.000786 ± 7.7e-05 s⁻¹
- self-cleavage kobs at 2500 uM GlcN6P (glucosamine-6-phosphate [2]): 0.00162 ± 0.00027 s⁻¹
- self-cleavage kobs at 10000 uM GlcN6P (glucosamine-6-phosphate [3]): 0.00298 ± 0.00027 s⁻¹

Variant: C11U G37A
- kcat (glucosamine-6-phosphate [1]): 7.88e-05 ± 6.9e-07 s⁻¹
- KM (glucosamine-6-phosphate [4]): 1070 ± 36 µM
- self-cleavage kobs at 640 uM GlcN6P (glucosamine-6-phosphate [6]): 2.98e-05 ± 9.1e-06 s⁻¹
- self-cleavage kobs at 2500 uM GlcN6P (glucosamine-6-phosphate [2]): 5.51e-05 ± 9.5e-06 s⁻¹
- self-cleavage kobs at 10000 uM GlcN6P (glucosamine-6-phosphate [3]): 7.12e-05 ± 8.2e-06 s⁻¹

Variant: C10G C50A C71U
- kcat (glucosamine-6-phosphate [1]): 1.87e-05 ± 3.4e-06 s⁻¹
- self-cleavage kobs at 10000 uM GlcN6P (glucosamine-6-phosphate [3]): < 1e-05 s⁻¹

Variant: A15C G29C G37A C61U
- kcat (glucosamine-6-phosphate [1]): < 1e-05 s⁻¹

Variant: A15G U45G
- kcat (glucosamine-6-phosphate [1]): 0.00832 ± 0.00089 s⁻¹
- KM (glucosamine-6-phosphate [4]): 1730 ± 260 µM
- self-cleavage kobs at 40 uM GlcN6P (glucosamine-6-phosphate [7]): 0.000211 ± 3.4e-05 s⁻¹
- self-cleavage kobs at 160 uM GlcN6P (glucosamine-6-phosphate [5]): 0.000643 ± 9.8e-05 s⁻¹
- self-cleavage kobs at 640 uM GlcN6P (glucosamine-6-phosphate [6]): 0.0024 ± 0.00037 s⁻¹
- self-cleavage kobs at 2500 uM GlcN6P (glucosamine-6-phosphate [2]): 0.0044 ± 0.00084 s⁻¹
- self-cleavage kobs at 10000 uM GlcN6P (glucosamine-6-phosphate [3]): 0.00741 ± 0.001 s⁻¹

Variant: G40C A42G
- kcat (glucosamine-6-phosphate [1]): 0.00319 ± 0.00048 s⁻¹
- KM (glucosamine-6-phosphate [4]): 1060 ± 250 µM
- self-cleavage kobs at 40 uM GlcN6P (glucosamine-6-phosphate [7]): 0.000131 ± 2.4e-05 s⁻¹
- self-cleavage kobs at 160 uM GlcN6P (glucosamine-6-phosphate [5]): 0.000438 ± 0.00016 s⁻¹
- self-cleavage kobs at 640 uM GlcN6P (glucosamine-6-phosphate [6]): 0.000898 ± 0.00025 s⁻¹
- self-cleavage kobs at 2500 uM GlcN6P (glucosamine-6-phosphate [2]): 0.0025 ± 0.0006 s⁻¹
- self-cleavage kobs at 10000 uM GlcN6P (glucosamine-6-phosphate [3]): 0.00299 ± 0.00053 s⁻¹

Variant: G29U G66A
- kcat (glucosamine-6-phosphate [1]): 0.0034 ± 0.00083 s⁻¹
- KM (glucosamine-6-phosphate [4]): 1710 ± 700 µM
- self-cleavage kobs at 40 uM GlcN6P (glucosamine-6-phosphate [7]): 8.79e-05 ± 1.5e-05 s⁻¹
- self-cleavage kobs at 160 uM GlcN6P (glucosamine-6-phosphate [5]): 0.000716 ± 0.0002 s⁻¹
- self-cleavage kobs at 640 uM GlcN6P (glucosamine-6-phosphate [6]): 0.000732 ± 0.00016 s⁻¹
- self-cleavage kobs at 2500 uM GlcN6P (glucosamine-6-phosphate [2]): 0.00168 ± 0.00038 s⁻¹
- self-cleavage kobs at 10000 uM GlcN6P (glucosamine-6-phosphate [3]): 0.00316 ± 0.00039 s⁻¹

Variant: G37A G66C
- kcat (glucosamine-6-phosphate [1]): 0.000578 ± 0.0001 s⁻¹
- KM (glucosamine-6-phosphate [4]): 2250 ± 630 µM
- self-cleavage kobs at 160 uM GlcN6P (glucosamine-6-phosphate [5]): 4.54e-05 ± 1.4e-05 s⁻¹
- self-cleavage kobs at 640 uM GlcN6P (glucosamine-6-phosphate [6]): 0.000117 ± 1.8e-05 s⁻¹
- self-cleavage kobs at 2500 uM GlcN6P (glucosamine-6-phosphate [2]): 0.000357 ± 5.8e-05 s⁻¹
- self-cleavage kobs at 10000 uM GlcN6P (glucosamine-6-phosphate [3]): 0.000439 ± 8.7e-05 s⁻¹

Variant: A53G U55G
- kcat (glucosamine-6-phosphate [1]): 0.0437 ± 0.021 s⁻¹
- self-cleavage kobs at 40 uM GlcN6P (glucosamine-6-phosphate [7]): 0.0007 ± 8.8e-05 s⁻¹
- self-cleavage kobs at 160 uM GlcN6P (glucosamine-6-phosphate [5]): 0.00323 ± 0.0008 s⁻¹
- self-cleavage kobs at 640 uM GlcN6P (glucosamine-6-phosphate [6]): 0.00936 ± 0.0021 s⁻¹
- self-cleavage kobs at 2500 uM GlcN6P (glucosamine-6-phosphate [2]): 0.0152 ± 0.0045 s⁻¹
- self-cleavage kobs at 10000 uM GlcN6P (glucosamine-6-phosphate [3]): 0.0622 ± 0.015 s⁻¹

Variant: G32U G40U
- kcat (glucosamine-6-phosphate [1]): 0.000265 ± 3e-05 s⁻¹
- KM (glucosamine-6-phosphate [4]): 7170 ± 1300 µM
- self-cleavage kobs at 640 uM GlcN6P (glucosamine-6-phosphate [6]): 1.68e-05 ± 7.3e-06 s⁻¹
- self-cleavage kobs at 2500 uM GlcN6P (glucosamine-6-phosphate [2]): 7.08e-05 ± 7.2e-06 s⁻¹
- self-cleavage kobs at 10000 uM GlcN6P (glucosamine-6-phosphate [3]): 0.000153 ± 1.6e-05 s⁻¹

Variant: G59U G66A
- kcat (glucosamine-6-phosphate [1]): 2.67e-05 ± 2.5e-07 s⁻¹
- KM (glucosamine-6-phosphate [4]): 3110 ± 100 µM

Variant: U45G U54A
- kcat (glucosamine-6-phosphate [1]): 0.00862 ± 0.0024 s⁻¹
- KM (glucosamine-6-phosphate [4]): 2110 ± 950 µM
- self-cleavage kobs at 40 uM GlcN6P (glucosamine-6-phosphate [7]): 0.000294 ± 6.7e-05 s⁻¹
- self-cleavage kobs at 160 uM GlcN6P (glucosamine-6-phosphate [5]): 0.000437 ± 0.00014 s⁻¹
- self-cleavage kobs at 640 uM GlcN6P (glucosamine-6-phosphate [6]): 0.00206 ± 0.00071 s⁻¹
- self-cleavage kobs at 2500 uM GlcN6P (glucosamine-6-phosphate [2]): 0.00456 ± 0.0014 s⁻¹
- self-cleavage kobs at 10000 uM GlcN6P (glucosamine-6-phosphate [3]): 0.00721 ± 0.0012 s⁻¹
